Series [1] is described as follows: Comparison of activities among recombinant polypeptides with site mutagenesis. The settings on record: for Activity (%), portion of recombinant protein activity compared with PsFOMT: Cy3G5G as substrate. It counts as biochemical. As to the method: The reaction system was according to Hugueney et al. with some modification (Hugueney, P., et al., A novel cation-dependent O-methyltransferase involved in anthocyanin methylation in grapevine. Plant Physiology, 2009. 150(4): p. 2057-2070.). Purified recombinant FOMT (2 μg) was assayed in a final volume of 200 μL containing 200 μM SAM, 1 mM MgCl2, 14 mM β-mercaptoethanol, 100 mM Tris, pH 7.5, and 20 μM flavonoid substrates. Incubation was performed at 35° C. and stopped with 200 μL methanol containing 2% formic acid. For enzyme kinetic studies, purified FOMT was incubated based on the above condition with the exception that a range of substrate concentrations from 5 to 200 μM were used for Km determination. Reaction product was analyzed by a Dionex HPLC system (Sunnyvale, Calif.), equipped with a P680 HPLC pump, an UltiMate 3000 autosampler, a TCC-100 thermostated column compartment and a Dionex PDA100 photodiode array detector. The analytical column was C18 column of ODS 80Ts QA (150 mm×4.6 mm, 5 μm i.d., Tosoh, Tokyo) protected with a C18 guard cartridge (Shanghai ANPEL Scientific Instrument, Shanghai). The following solvent and gradient were used: A, 10% aqueous formic acid; B, methanol; constant gradient from 10 to 36% B within 15 min and back to 10% B in 3 min; the flow rate was 0.8 mL min^−1; Column temperature was maintained at 35° C.; 20 μL of analyte was injected. Chromatograms were obtained at 525 nm for anthocyanins and 350 nm for other flavonoids, and photodiode array spectra were recorded from 200 to 800 nm. Km and Vmax values were calculated from Lineweaver-Burk plots.
To validate the key amino acid responsible for the activity, site-directed mutagenesis was carried out using the PCR method and Fast Mutagenesis System (TransGen), and primer sequences used are given in Table 1. Four constructs were built following the template sequence of PtFOMT, named as PtFOMT-G13E, PtFOMT-T85A, PtFOMT-R87L, and PtFOMT-T205R. The corresponding recombinant proteins were purified and the catalytic activities were examined. […] The other mutants have no significant improved activity compared with PtFOMT. The leucine at 87-position is a vital residue for the methyltransferase activity.

For series [2], the system named is Nicotiana tabacum cv.Nc89. The series is described as follows: Flavonoid O-methyltransferase activity in transgenic tobacco. Format: in vivo. The text has this: The full length genes were introduced with a BamHl site and an XhoI site on 5′- and 3′-end by PCR with primers SEQ No. 5 & 6. The double digested fragment of interest and eukaryotic expression vector pBI121 with BamHl site and an XhoI were ligated. Then the appropriate constructs were introduced into Agrobacterium strain EHA105 by electroporation.
Leaf of Nicotiana tabacum cv.Nc89 plant (Donated by Professor Silan Dai, Beijing Forestry University) was disinfected by 75% ethanol for 30 s, followed by 2% sodium hypochlorite for 3 minutes, and then washed with sterile water for three times. The leaf was cut into squares (25 mm^2) A single colony of Agrobacterium strain EHA105 with pBI121-FOMT construct was used to inoculate with 2 mL of YEB medium (per liter: 5 g of beef extract, 1 g of yeast extract, 5 g of sucrose, and 0.5 g of MgSO4.7H2O), supplemented with 50 mg mL^−1 kanamycin and 25 mg mL^−1 Rifampicin. The culture was incubated at 28° C. until OD600 0.6-0.8, and the bacteria were pelleted by centrifugation at 5000 rpm for 5 minutes. The cells were washed by MS liquid medium and resuspended pellets with appropriate volume of MS liquid. The tobacco leaf squares were dipped into the bacteria solution for 8 minutes and cultivated on MS media containing 2.0 mg L^−1 6-benzylaminopurine (6-BA), 0.2 mg L^−1 1-naphthylacetic acid (NAA), and 500 mg L^−1 ceflomine. The explants were transferred to fresh selected medium after two weeks. When the regenerating plantlets grow to 2 cm, move them to MS media containing 0.2 mg L^−1 NAA to induce root. After four weeks, the transgenic tobacco plantlets were transferred to pots and kept in the greenhouse till flowering. The positive transgenic lines were selected by PCR, and transgenic plantlets with empty plasmid were used as control. The anthocyanins in transgenic petals were detected with an HPLC system.
Appropriate amount of sample (petal, fruits) was powdered with mortars and pestles and extracted for the first time with 2 mL 2% (v/v) formic acid methanol solution shaken in a QL-861 vortex (Kylinbell Lab Instruments, Jiangsu, China), sonicated in KQ-500DE ultrasonic cleaner (Ultrasonic instruments, Jiangsu Kunshan, China) at 20° C. for 20 min, centrifuged in SIGMA 3K30 (SIGMA centrifugers, Germany) (12000 rpm, 10 min), and the supernatant was collected. Additional 2 mL and 1 mL extraction solution was supplemented to the residue, and repeated aforesaid operation for the second and third times. All extract was pooled and filtrated through 0.22 μm reinforced nylon membrane filters (Shanghai ANPEL, Shanghai, China) before the HPLC-DAD and HPLC-ESI-MS^n analyses. Three replicates were performed for each sample. […]
HPLC-ESI-MS^n analysis was carried with an Agilent-1100 HPLC system equipped with a UV detector coupled to a LC-MSD Trap VL ion-trap mass spectrometer via an ESI source (Agilent Technologies, Palo Alto, Calif.). […] The MS conditions were listed as follow: negative-ion (NI) mode; capillary voltage of 3.5 kV; a nebulization pressure of 241.3 kPa; and a gas (N2) temperature of 350° C. with flow rate of 6.0 L min^−1 Capillary offset voltage was 77.2 V. MS spectra were recorded over the range from m/z 50-1000.

The values that follow come from patent US20160177324A1, “NOVEL PROTEIN AND GENE RELATED TO FLAVONOID O-METHYLTRANSFERASE (FOMT) AND THEIR USES THEREFORE” (INSTITUTE OF BOTANY, THE CHINESE ACADEMY OF SCIENCES, priority 2013, published 2016).

B1: PtFOMT: similar O-methyltransferase cloned from Paeonia tenuifolia, SEQ ID NO: 4; differs from PsFOMT at positions 13, 85, 87, 205 (protein, listed as Paeonia tenuifolia)
chain: MAESDRKGILKSGALLKYILETSVYPREHEQLKQLRQATVDKYKYWSVMNVPADEGQFLSMLLKIMNAKKTIEVGVFTGYSLLTTARALPTDAKITAIDPDGEAYETGLPFIKKAGVEHKINYIQADAMSVLDDLVTNGKEEGSFDFAFVDADKENYAKYHEPLMKLVKIGGIIGYDNTLWFGSVALSDGDEMKEFQEKGRRIFTEFNTFLAADPRIELAHISIGDGLALCRRLY
As for B1, the “Activity (%), portion of recombinant protein activity compared with PsFOMT” value (“Activity (%), portion” for short) was 0% in series [1] (Incubation 5 min) and 4.2% in series [1] (Incubation 30 min). For the same molecule, the “flower color compared with control lines” value in series [2] (transgenic tobacco flowers) is on record as “no obvious difference”. Moreover, the “methyltransferase function in tobacco petal (new anthocyanin Pn3R detected)” value in series [2] (transgenic tobacco petals vs empty vector) was “performed as a methyltransferase”.

B2: PtFOMT-G13E: site-directed mutant of PtFOMT, G13E (protein)
chain: MAESDRKGILKSEALLKYILETSVYPREHEQLKQLRQATVDKYKYWSVMNVPADEGQFLSMLLKIMNAKKTIEVGVFTGYSLLTTARALPTDAKITAIDPDGEAYETGLPFIKKAGVEHKINYIQADAMSVLDDLVTNGKEEGSFDFAFVDADKENYAKYHEPLMKLVKIGGIIGYDNTLWFGSVALSDGDEMKEFQEKGRRIFTEFNTFLAADPRIELAHISIGDGLALCRRLY
For B2, the “Activity (%), portion” value worked out at 0% in series [1] (Incubation 5 min) and 18.5% in series [1] (Incubation 30 min).

B3: PtFOMT-R87L: site-directed mutant of PtFOMT, R87L (protein)
chain: MAESDRKGILKSGALLKYILETSVYPREHEQLKQLRQATVDKYKYWSVMNVPADEGQFLSMLLKIMNAKKTIEVGVFTGYSLLTTALALPTDAKITAIDPDGEAYETGLPFIKKAGVEHKINYIQADAMSVLDDLVTNGKEEGSFDFAFVDADKENYAKYHEPLMKLVKIGGIIGYDNTLWFGSVALSDGDEMKEFQEKGRRIFTEFNTFLAADPRIELAHISIGDGLALCRRLY
B3: the “Activity (%), portion” value in series [1] (Incubation 5 min) is given as 100.7%; in series [1] (Incubation 30 min), 104.5%. The “catalytic activity of site-directed mutants” value in series [1] (recombinant purified proteins) is “regain the activity equal to PsFOMT”.

B4: PtFOMT-T85A: site-directed mutant of PtFOMT, T85A (protein)
chain: MAESDRKGILKSGALLKYILETSVYPREHEQLKQLRQATVDKYKYWSVMNVPADEGQFLSMLLKIMNAKKTIEVGVFTGYSLLTAARALPTDAKITAIDPDGEAYETGLPFIKKAGVEHKINYIQADAMSVLDDLVTNGKEEGSFDFAFVDADKENYAKYHEPLMKLVKIGGIIGYDNTLWFGSVALSDGDEMKEFQEKGRRIFTEFNTFLAADPRIELAHISIGDGLALCRRLY
B4: the “Activity (%), portion” value in series [1] (Incubation 5 min) is 0%; in series [1] (Incubation 30 min) it was 14.0%.

B5: PtFOMT-T205R: site-directed mutant of PtFOMT, T205R (protein)
chain: MAESDRKGILKSGALLKYILETSVYPREHEQLKQLRQATVDKYKYWSVMNVPADEGQFLSMLLKIMNAKKTIEVGVFTGYSLLTTARALPTDAKITAIDPDGEAYETGLPFIKKAGVEHKINYIQADAMSVLDDLVTNGKEEGSFDFAFVDADKENYAKYHEPLMKLVKIGGIIGYDNTLWFGSVALSDGDEMKEFQEKGRRIFREFNTFLAADPRIELAHISIGDGLALCRRLY
B5: the “Activity (%), portion” value in series [1] (Incubation 5 min) is on record as 0%; in series [1] (Incubation 30 min) it was 38.1%.
